From patent US10472652B2, “Chemical engineering processes and apparatus for the synthesis of compounds” (TEEWINOT T[…], priority 2013, dated 2019)

Target: T1, THCA synthase (Cannabis sativa, UniProt Q8GTB6)
T1 construct: His-tag (C); made in house; host or cells: Pichia pastoris (PichiaPink, pPink-HC vector), secreted into the medium; cell-free T3 supernatant used
T1 sequence (Q8GTB6 29-545): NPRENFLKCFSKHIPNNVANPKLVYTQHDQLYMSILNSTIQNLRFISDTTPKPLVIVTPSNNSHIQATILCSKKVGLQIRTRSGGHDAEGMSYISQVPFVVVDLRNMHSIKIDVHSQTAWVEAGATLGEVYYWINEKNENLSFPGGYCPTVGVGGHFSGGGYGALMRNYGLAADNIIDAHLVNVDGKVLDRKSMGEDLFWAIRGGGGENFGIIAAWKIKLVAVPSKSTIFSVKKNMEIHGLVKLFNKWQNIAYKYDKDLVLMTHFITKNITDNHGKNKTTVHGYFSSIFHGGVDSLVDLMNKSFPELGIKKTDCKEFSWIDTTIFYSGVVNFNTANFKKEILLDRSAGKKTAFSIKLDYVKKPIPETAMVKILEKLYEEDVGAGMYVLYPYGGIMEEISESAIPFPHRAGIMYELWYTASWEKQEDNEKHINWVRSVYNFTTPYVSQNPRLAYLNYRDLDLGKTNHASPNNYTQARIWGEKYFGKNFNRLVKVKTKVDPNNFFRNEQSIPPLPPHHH
Assay: catalytic activity of THCA synthase from independent colonies of transformed pPink yeast cells (conversion of CBGA to THCA)
Format: biochemical
Settings: 25 μl cell free supernatant of T3 sample, 100 mM citrate buffer, 10% DMSO, final pH 5.0, 2 hours at 30° C.
Description: After 24 hours a 100 μL of the cell sample was removed to which was added 100 μL of 40% methanol to induce enzyme production. This methanolic sample was then centrifuged at 12,000 rpm for 5 minutes and the supernatant and pellet were saved as the T1 sample. A second culture sample was obtained after a 48 hour incubation period and treated with methanol as described above. After centrifugation, the supernatant and pellet are saved as the T2 sample. At 72 hours the entire incubation mixture is treated with an appropriate volume of 40% methanol. The supernatant and pellet obtained from methanolic treatment of the culture after a 72 hour incubation period is labeled as T3. The T3 supernatant was spun through an Amicon 30 kD protein filter and analyzed for protein using an SDS-PAGE gel.
The catalytic activity of THCA synthase was measured by incubating 25 μl of the cell free supernatant from a T3 sample with 25 μl of a 1 mg/ml CBGA stock in 200 μl of a 100 mM citrate buffer at pH 4.8 having 10% DMSO for 2 hours at 30° C. The final concentration of CBGA in the reaction mixture was 0.1 mg/ml and the final pH is 5.0. Table 4 illustrates the data related to the catalytic activity of THCA synthase obtained from independent colonies of transformed pPink yeast cells, namely. pPink yeast cells that were transformed using linearized THCA synthase plasmids. Culture samples that converted greater than 20% of the substrate CBGA to product THCA were selected for scale up.

Row | Molecule | % Conversion of CBGA to THCA in reaction containing 0.1 mg/ml CBGA.
1 | Spe THC #3: cell free supernatant with THCA synthase from a pPink yeast colony transformed with Spe I linearized THCA synthase plasmid (protein, UniProt Q8GTB6 29-545, looked up, yeast culture supernatant, cell free supernatant with THCA synthase from a pPink yeast colony transformed with Spe I linearized THCA synthase plasmid) Tetrahydrocannabinolic acid …: NPRENFLKCFSKHIPNNVANPKLVYTQHDQLYMSILNSTIQNLRFISDTTPKPLVIVTPSNNSHIQATILCSKKVGLQIRTRSGGHDAEGMSYISQVPFVVVDLRNMHSIKIDVHSQTAWVEAGATLGEVYYWINEKNENLSFPGGYCPTVGVGGHFSGGGYGALMRNYGLAADNIIDAHLVNVDGKVLDRKSMGEDLFWAIRGGGGENFGIIAAWKIKLVAVPSKSTIFSVKKNMEIHGLVKLFNKWQNIAYKYDKDLVLMTHFITKNITDNHGKNKTTVHGYFSSIFHGGVDSLVDLMNKSFPELGIKKTDCKEFSWIDTTIFYSGVVNFNTANFKKEILLDRSAGKKTAFSIKLDYVKKPIPETAMVKILEKLYEEDVGAGMYVLYPYGGIMEEISESAIPFPHRAGIMYELWYTASWEKQEDNEKHINWVRSVYNFTTPYVSQNPRLAYLNYRDLDLGKTNHASPNNYTQARIWGEKYFGKNFNRLVKVKTKVDPNNFFRNEQSIPPLPPHHH | 20.6%
2 | Spe THC #22: cell free supernatant with THCA synthase from a pPink yeast colony transformed with Spe I linearized THCA synthase plasmid (protein, UniProt Q8GTB6 29-545, looked up, yeast culture supernatant, cell free supernatant with THCA synthase from a pPink yeast colony transformed with Spe I linearized THCA synthase plasmid) Tetrahydrocannabinolic acid …: NPRENFLKCFSKHIPNNVANPKLVYTQHDQLYMSILNSTIQNLRFISDTTPKPLVIVTPSNNSHIQATILCSKKVGLQIRTRSGGHDAEGMSYISQVPFVVVDLRNMHSIKIDVHSQTAWVEAGATLGEVYYWINEKNENLSFPGGYCPTVGVGGHFSGGGYGALMRNYGLAADNIIDAHLVNVDGKVLDRKSMGEDLFWAIRGGGGENFGIIAAWKIKLVAVPSKSTIFSVKKNMEIHGLVKLFNKWQNIAYKYDKDLVLMTHFITKNITDNHGKNKTTVHGYFSSIFHGGVDSLVDLMNKSFPELGIKKTDCKEFSWIDTTIFYSGVVNFNTANFKKEILLDRSAGKKTAFSIKLDYVKKPIPETAMVKILEKLYEEDVGAGMYVLYPYGGIMEEISESAIPFPHRAGIMYELWYTASWEKQEDNEKHINWVRSVYNFTTPYVSQNPRLAYLNYRDLDLGKTNHASPNNYTQARIWGEKYFGKNFNRLVKVKTKVDPNNFFRNEQSIPPLPPHHH | 20.6%
3 | Spe THC #4: cell free supernatant with THCA synthase from a pPink yeast colony transformed with Spe I linearized THCA synthase plasmid (protein, UniProt Q8GTB6 29-545, looked up, yeast culture supernatant, cell free supernatant with THCA synthase from a pPink yeast colony transformed with Spe I linearized THCA synthase plasmid) Tetrahydrocannabinolic acid …: NPRENFLKCFSKHIPNNVANPKLVYTQHDQLYMSILNSTIQNLRFISDTTPKPLVIVTPSNNSHIQATILCSKKVGLQIRTRSGGHDAEGMSYISQVPFVVVDLRNMHSIKIDVHSQTAWVEAGATLGEVYYWINEKNENLSFPGGYCPTVGVGGHFSGGGYGALMRNYGLAADNIIDAHLVNVDGKVLDRKSMGEDLFWAIRGGGGENFGIIAAWKIKLVAVPSKSTIFSVKKNMEIHGLVKLFNKWQNIAYKYDKDLVLMTHFITKNITDNHGKNKTTVHGYFSSIFHGGVDSLVDLMNKSFPELGIKKTDCKEFSWIDTTIFYSGVVNFNTANFKKEILLDRSAGKKTAFSIKLDYVKKPIPETAMVKILEKLYEEDVGAGMYVLYPYGGIMEEISESAIPFPHRAGIMYELWYTASWEKQEDNEKHINWVRSVYNFTTPYVSQNPRLAYLNYRDLDLGKTNHASPNNYTQARIWGEKYFGKNFNRLVKVKTKVDPNNFFRNEQSIPPLPPHHH | 28.7%
4 | Spe THC #23: cell free supernatant with THCA synthase from a pPink yeast colony transformed with Spe I linearized THCA synthase plasmid (protein, UniProt Q8GTB6 29-545, looked up, yeast culture supernatant, cell free supernatant with THCA synthase from a pPink yeast colony transformed with Spe I linearized THCA synthase plasmid) Tetrahydrocannabinolic acid …: NPRENFLKCFSKHIPNNVANPKLVYTQHDQLYMSILNSTIQNLRFISDTTPKPLVIVTPSNNSHIQATILCSKKVGLQIRTRSGGHDAEGMSYISQVPFVVVDLRNMHSIKIDVHSQTAWVEAGATLGEVYYWINEKNENLSFPGGYCPTVGVGGHFSGGGYGALMRNYGLAADNIIDAHLVNVDGKVLDRKSMGEDLFWAIRGGGGENFGIIAAWKIKLVAVPSKSTIFSVKKNMEIHGLVKLFNKWQNIAYKYDKDLVLMTHFITKNITDNHGKNKTTVHGYFSSIFHGGVDSLVDLMNKSFPELGIKKTDCKEFSWIDTTIFYSGVVNFNTANFKKEILLDRSAGKKTAFSIKLDYVKKPIPETAMVKILEKLYEEDVGAGMYVLYPYGGIMEEISESAIPFPHRAGIMYELWYTASWEKQEDNEKHINWVRSVYNFTTPYVSQNPRLAYLNYRDLDLGKTNHASPNNYTQARIWGEKYFGKNFNRLVKVKTKVDPNNFFRNEQSIPPLPPHHH | 18.7%
